Laboratory results as given in the RNAGym collection of RNA variant scans (doi:10.7554/elife.80360).

B1: Hairpin Ribozyme (parent)
chain: GUCCUCUUUCACGUGCGCGUGAAAGAGAGAAGUGAACCAGAGAAACACACGUUGUGGUAUAUUACCUGGUA

Variants of: B1
Experiment: self-cleavage, relative activity (ratio to wild type); higher = more cleavage; co-transcriptional

Variant	self-cleavage
GUCCUCUUUCACGUGCGCGUGAAAGAGAGAAGUGAACCAGAUAAACACACGUUGUGGUAAAUUACCUGGUA [G42U U60A]	0.178
GUCCUCUUUCACGUGCGCGUGAAAGAGAGAAGUGAACCAGAUAAACACACGUUGUGGUACAUUACCUGGUA [G42U U60C]	0.241
GUCCUCUUUCACGUGCGCGUGAAAGAGAGAAGUGAACCAGAUAAACACACGUUGUGGUAGAUUACCUGGUA [G42U U60G]	0.218
GUCCUCUUUCACGUGCGCGUGAAAGAGAGAAGUGAACCAGAUAAACACACGUUGUGGUAUAAUACCUGGUA [G42U U62A]	0.2
GUCCUCUUUCACGUGCGCGUGAAAGAGAGAAGUGAACCAGAUAAACACACGUUGUGGUAUACUACCUGGUA [G42U U62C]	0.149
GUCCUCUUUCACGUGCGCGUGAAAGAGAGAAGUGAACCAGAUAAACACACGUUGUGGUAUAGUACCUGGUA [G42U U62G]	0.22
GUCCUCUUUCACGUGCGCGUGAAAGAGAGAAGUGAACCAGAUAAACACACGUUGUGGUAUAUAACCUGGUA [G42U U63A]	0.195
GUCCUCUUUCACGUGCGCGUGAAAGAGAGAAGUGAACCAGAUAAACACACGUUGUGGUAUAUUACCGGGUA [G42U U67G]	0.127
GUCCUCUUUCACGUGCGCGUGAAAGAGAGAAGUGAACCAGAGCAACACACGUUGUGGUAUAUUACCUGGUA [A43C]	0.141
GUCCUCUUUCACGUGCGCGUGAAAGAGAGAAGUGAACCAGAGCCACACACGUUGUGGUAUAUUACCUGGUA [A43C A44C]	0.259
GUCCUCUUUCACGUGCGCGUGAAAGAGAGAAGUGAACCAGAGCAACACACGUUGUGGUCUAUUACCUGGUA [A43C A59C]	0.195
GUCCUCUUUCACGUGCGCGUGAAAGAGAGAAGUGAACCAGAGCAAAACACGUUGUGGUAUAUUACCUGGUA [A43C C46A]	0.1
GUCCUCUUUCACGUGCGCGUGAAAGAGAGAAGUGAACCAGAGCAAGACACGUUGUGGUAUAUUACCUGGUA [A43C C46G]	0.245
GUCCUCUUUCACGUGCGCGUGAAAGAGAGAAGUGAACCAGAGCAACAUACGUUGUGGUAUAUUACCUGGUA [A43C C48U]	0.16
GUCCUCUUUCACGUGCGCGUGAAAGAGAGAAGUGAACCAGAGCAACACACGUUGUGGUAUAUUACGUGGUA [A43C C66G]	0.0604
GUCCUCUUUCACGUGCGCGUGAAAGAGAGAAGUGAACCAGAGCAACACACUUUGUGGUAUAUUACCUGGUA [A43C G51U]	0.0904
GUCCUCUUUCACGUGCGCGUGAAAGAGAGAAGUGAACCAGAGCAACACACGUUUUGGUAUAUUACCUGGUA [A43C G54U]	0.241
GUCCUCUUUCACGUGCGCGUGAAAGAGAGAAGUGAACCAGAGCAACACACGUUGUGAUAUAUUACCUGGUA [A43C G57A]	0.137
GUCCUCUUUCACGUGCGCGUGAAAGAGAGAAGUGAACCAGAGCAACACACGUUGUGCUAUAUUACCUGGUA [A43C G57C]	0.204
GUCCUCUUUCACGUGCGCGUGAAAGAGAGAAGUGAACCAGAGCAACACACGUUGUGGUAUAUUACCUCGUA [A43C G68C]	0
GUCCUCUUUCACGUGCGCGUGAAAGAGAGAAGUGAACCAGAGCAACACACGUUGUGGUAUAUUACCUGAUA [A43C G69A]	0.105
GUCCUCUUUCACGUGCGCGUGAAAGAGAGAAGUGAACCAGAGCAACACACGUUGUGGUAUAUUACCUGCUA [A43C G69C]	0.196
GUCCUCUUUCACGUGCGCGUGAAAGAGAGAAGUGAACCAGAGCAACACACGUUGUGGUAUAUUACCUGUUA [A43C G69U]	0.161
GUCCUCUUUCACGUGCGCGUGAAAGAGAGAAGUGAACCAGAGCAACACACGAUGUGGUAUAUUACCUGGUA [A43C U52A]	0.136
GUCCUCUUUCACGUGCGCGUGAAAGAGAGAAGUGAACCAGAGCAACACACGUGGUGGUAUAUUACCUGGUA [A43C U53G]	0.103
GUCCUCUUUCACGUGCGCGUGAAAGAGAGAAGUGAACCAGAGCAACACACGUUGUGGCAUAUUACCUGGUA [A43C U58C]	0.148

Variant	self-cleavage
GUCCUCUUUCACGUGCGCGUGAAAGAGAGAAGUGAACCAGAGCAACACACGUUGUGGGAUAUUACCUGGUA [A43C U58G]	0.262
GUCCUCUUUCACGUGCGCGUGAAAGAGAGAAGUGAACCAGAGCAACACACGUUGUGGUAUAAUACCUGGUA [A43C U62A]	0.12
GUCCUCUUUCACGUGCGCGUGAAAGAGAGAAGUGAACCAGAGCAACACACGUUGUGGUAUAUCACCUGGUA [A43C U63C]	0.157
GUCCUCUUUCACGUGCGCGUGAAAGAGAGAAGUGAACCAGAGCAACACACGUUGUGGUAUAUUACCUGGCA [A43C U70C]	0.164
GUCCUCUUUCACGUGCGCGUGAAAGAGAGAAGUGAACCAGAGCAACACACGUUGUGGUAUAUUACCUGGGA [A43C U70G]	0.12
GUCCUCUUUCACGUGCGCGUGAAAGAGAGAAGUGAACCAGAGGAACACACGUUGUGGUAUAUUACCUGGUA [A43G]	0.148
GUCCUCUUUCACGUGCGCGUGAAAGAGAGAAGUGAACCAGAGGGACACACGUUGUGGUAUAUUACCUGGUA [A43G A44G]	0.0966
GUCCUCUUUCACGUGCGCGUGAAAGAGAGAAGUGAACCAGAGGACCACACGUUGUGGUAUAUUACCUGGUA [A43G A45C]	0.142
GUCCUCUUUCACGUGCGCGUGAAAGAGAGAAGUGAACCAGAGGAGCACACGUUGUGGUAUAUUACCUGGUA [A43G A45G]	0.104
GUCCUCUUUCACGUGCGCGUGAAAGAGAGAAGUGAACCAGAGGAACGCACGUUGUGGUAUAUUACCUGGUA [A43G A47G]	0.196
GUCCUCUUUCACGUGCGCGUGAAAGAGAGAAGUGAACCAGAGGAACACGCGUUGUGGUAUAUUACCUGGUA [A43G A49G]	0.0811
GUCCUCUUUCACGUGCGCGUGAAAGAGAGAAGUGAACCAGAGGAACACACGUUGUGGUGUAUUACCUGGUA [A43G A59G]	0.094
GUCCUCUUUCACGUGCGCGUGAAAGAGAGAAGUGAACCAGAGGAACACACGUUGUGGUAUCUUACCUGGUA [A43G A61C]	0.0791
GUCCUCUUUCACGUGCGCGUGAAAGAGAGAAGUGAACCAGAGGAACACACGUUGUGGUAUAUUGCCUGGUA [A43G A64G]	0.132
GUCCUCUUUCACGUGCGCGUGAAAGAGAGAAGUGAACCAGAGGAAAACACGUUGUGGUAUAUUACCUGGUA [A43G C46A]	0.153
GUCCUCUUUCACGUGCGCGUGAAAGAGAGAAGUGAACCAGAGGAACAAACGUUGUGGUAUAUUACCUGGUA [A43G C48A]	0.174
GUCCUCUUUCACGUGCGCGUGAAAGAGAGAAGUGAACCAGAGGAACAUACGUUGUGGUAUAUUACCUGGUA [A43G C48U]	0.123
GUCCUCUUUCACGUGCGCGUGAAAGAGAGAAGUGAACCAGAGGAACACAUGUUGUGGUAUAUUACCUGGUA [A43G C50U]	0.198
GUCCUCUUUCACGUGCGCGUGAAAGAGAGAAGUGAACCAGAGGAACACACGUUGUGGUAUAUUAACUGGUA [A43G C65A]	0.0913
GUCCUCUUUCACGUGCGCGUGAAAGAGAGAAGUGAACCAGAGGAACACACAUUGUGGUAUAUUACCUGGUA [A43G G51A]	0.0738
GUCCUCUUUCACGUGCGCGUGAAAGAGAGAAGUGAACCAGAGGAACACACCUUGUGGUAUAUUACCUGGUA [A43G G51C]	0.107
GUCCUCUUUCACGUGCGCGUGAAAGAGAGAAGUGAACCAGAGGAACACACGUUCUGGUAUAUUACCUGGUA [A43G G54C]	0.168
GUCCUCUUUCACGUGCGCGUGAAAGAGAGAAGUGAACCAGAGGAACACACGUUUUGGUAUAUUACCUGGUA [A43G G54U]	0.156
GUCCUCUUUCACGUGCGCGUGAAAGAGAGAAGUGAACCAGAGGAACACACGUUGUAGUAUAUUACCUGGUA [A43G G56A]	0.0841
GUCCUCUUUCACGUGCGCGUGAAAGAGAGAAGUGAACCAGAGGAACACACGUUGUGAUAUAUUACCUGGUA [A43G G57A]	0.198
GUCCUCUUUCACGUGCGCGUGAAAGAGAGAAGUGAACCAGAGGAACACACGUUGUGUUAUAUUACCUGGUA [A43G G57U]	0.151

Variant	self-cleavage
GUCCUCUUUCACGUGCGCGUGAAAGAGAGAAGUGAACCAGAGGAACACACGUUGUGGUAUAUUACCUCGUA [A43G G68C]	0.0248
GUCCUCUUUCACGUGCGCGUGAAAGAGAGAAGUGAACCAGAGGAACACACGUUGUGGUAUAUUACCUGCUA [A43G G69C]	0.268
GUCCUCUUUCACGUGCGCGUGAAAGAGAGAAGUGAACCAGAGGAACACACGCUGUGGUAUAUUACCUGGUA [A43G U52C]	0.064
GUCCUCUUUCACGUGCGCGUGAAAGAGAGAAGUGAACCAGAGGAACACACGUAGUGGUAUAUUACCUGGUA [A43G U53A]	0.152
GUCCUCUUUCACGUGCGCGUGAAAGAGAGAAGUGAACCAGAGGAACACACGUCGUGGUAUAUUACCUGGUA [A43G U53C]	0.107
GUCCUCUUUCACGUGCGCGUGAAAGAGAGAAGUGAACCAGAGGAACACACGUUGUGGCAUAUUACCUGGUA [A43G U58C]	0.12
GUCCUCUUUCACGUGCGCGUGAAAGAGAGAAGUGAACCAGAGGAACACACGUUGUGGGAUAUUACCUGGUA [A43G U58G]	0.212
GUCCUCUUUCACGUGCGCGUGAAAGAGAGAAGUGAACCAGAGGAACACACGUUGUGGUAAAUUACCUGGUA [A43G U60A]	0.202
GUCCUCUUUCACGUGCGCGUGAAAGAGAGAAGUGAACCAGAGGAACACACGUUGUGGUAGAUUACCUGGUA [A43G U60G]	0.0362
GUCCUCUUUCACGUGCGCGUGAAAGAGAGAAGUGAACCAGAGGAACACACGUUGUGGUAUAUAACCUGGUA [A43G U63A]	0.134
GUCCUCUUUCACGUGCGCGUGAAAGAGAGAAGUGAACCAGAGGAACACACGUUGUGGUAUAUCACCUGGUA [A43G U63C]	0.156
GUCCUCUUUCACGUGCGCGUGAAAGAGAGAAGUGAACCAGAGGAACACACGUUGUGGUAUAUGACCUGGUA [A43G U63G]	0.11
GUCCUCUUUCACGUGCGCGUGAAAGAGAGAAGUGAACCAGAGGAACACACGUUGUGGUAUAUUACCUGGAA [A43G U70A]	0.225
GUCCUCUUUCACGUGCGCGUGAAAGAGAGAAGUGAACCAGAGGAACACACGUUGUGGUAUAUUACCUGGCA [A43G U70C]	0.19
GUCCUCUUUCACGUGCGCGUGAAAGAGAGAAGUGAACCAGAGGAACACACGUUGUGGUAUAUUACCUGGGA [A43G U70G]	0.288
GUCCUCUUUCACGUGCGCGUGAAAGAGAGAAGUGAACCAGAGUAACACACGUUGUGGUAUAUUACCUGGUA [A43U]	0.151
GUCCUCUUUCACGUGCGCGUGAAAGAGAGAAGUGAACCAGAGUAUCACACGUUGUGGUAUAUUACCUGGUA [A43U A45U]	0.164
GUCCUCUUUCACGUGCGCGUGAAAGAGAGAAGUGAACCAGAGUAACGCACGUUGUGGUAUAUUACCUGGUA [A43U A47G]	0.121
GUCCUCUUUCACGUGCGCGUGAAAGAGAGAAGUGAACCAGAGUAACUCACGUUGUGGUAUAUUACCUGGUA [A43U A47U]	0.145
GUCCUCUUUCACGUGCGCGUGAAAGAGAGAAGUGAACCAGAGUAACACUCGUUGUGGUAUAUUACCUGGUA [A43U A49U]	0.27
GUCCUCUUUCACGUGCGCGUGAAAGAGAGAAGUGAACCAGAGUAACACACGUUGUGGUGUAUUACCUGGUA [A43U A59G]	0.166
GUCCUCUUUCACGUGCGCGUGAAAGAGAGAAGUGAACCAGAGUAACACACGUUGUGGUUUAUUACCUGGUA [A43U A59U]	0.204
GUCCUCUUUCACGUGCGCGUGAAAGAGAGAAGUGAACCAGAGUAACACACGUUGUGGUAUAUUCCCUGGUA [A43U A64C]	0.161
GUCCUCUUUCACGUGCGCGUGAAAGAGAGAAGUGAACCAGAGUAACACACGUUGUGGUAUAUUUCCUGGUA [A43U A64U]	0.266
